Data reported in patent US20180036405A1.

What was measured:
[1] = biological target: EGFR on A431 epidermoid carcinoma cells (human) (UniProt P00533); assay: cell-based or functional assay
[2] = biological target: human dimeric EGFR (EGFR.mFc) (human); assay: SPR 37C, mAb captured by anti-human Fc, EGFR.mFc analyte
[3] = biological target: human monomeric EGFR (EGFR.mmh) (human) (UniProt P00533); assay: SPR 37C, mAb captured by anti-human Fc, EGFR.mmh analyte

Substance | ADCC EC50 [1] [Molar] | IC50 of A431 Proliferation [1] [Molar] | Maximum Cell Killing (%) [1] [%] | Kd [2] [nM] | koff [2] [s⁻¹] | kon [2] [M⁻¹ s⁻¹] | t1/2 [2] [h] | Kd [3] [nM] | koff [3] [s⁻¹] | kon [3] [M⁻¹ s⁻¹] | t1/2 [3] [min]
Control I: a chimeric anti-EGFR antibody with heavy and light chain variable sequences of "mAb 225" as set forth in U.S. Pat. No. 7,060,808 | 1.86e-12 | 3.35e-10 | 24 | 0.0303 | 0.000108 | 3.55e+06 | 1.78 | 4.68 | 0.00738 | 1.58e+06 | 2
Control II: a commercially available fully human monoclonal anti-EGFR antibody designated as ABX-EGF |  |  |  | 0.0423 |  |  | 3.3 |  |  |  | 
